Reference: publication PMC11698036, “Borg5 restricts contractility and motility in epithelial MDCK cells” (Journal of Cell Science, 2024)

T1: His–Borg5 (recombinant mouse Borg5, Cdc42EP1) (mouse, UniProt Q91W92 1-409)
T1 construct: Borg5 (Cdc42EP1), mouse cDNA (Borg5–Myc cDNA of Vong et al., 2010), PCR-cloned into pet28a+; All recombinant Borg5 constructs were based on mouse Borg5–Myc cDNA; Runs at 50 kDa on the His blot; also called His-tagged Borg5; source: E. coli BL21(DE3), purified (boiled, 8 M urea, Ni-NTA agarose; also purified under native conditions)
T1 sequence (looked up): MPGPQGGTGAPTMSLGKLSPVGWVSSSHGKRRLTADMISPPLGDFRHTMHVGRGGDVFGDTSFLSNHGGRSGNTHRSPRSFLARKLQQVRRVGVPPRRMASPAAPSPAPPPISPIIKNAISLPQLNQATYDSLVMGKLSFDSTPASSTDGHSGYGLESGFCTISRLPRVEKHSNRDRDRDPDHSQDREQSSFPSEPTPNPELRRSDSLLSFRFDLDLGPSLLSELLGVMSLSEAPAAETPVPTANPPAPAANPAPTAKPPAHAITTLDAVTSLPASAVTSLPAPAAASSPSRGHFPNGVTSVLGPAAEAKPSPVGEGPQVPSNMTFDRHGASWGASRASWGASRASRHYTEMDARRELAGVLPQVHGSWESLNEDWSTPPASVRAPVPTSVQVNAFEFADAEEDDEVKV


Key:
[1] = biological target: T1, His–Borg5 (recombinant mouse Borg5, …); assay: pull-down; three-way assay: His–Borg5 pre-incubated with septin 9-6-7-2 complexes, then bound to GST–MyoIIA-Rod immobilised on glutathione resin; septin buffer (300 mM KCl), 4°C; Coomassie gel and His blot; two experiments; conditions: both partners purified
[2] = biological target: T1, His–Borg5 (recombinant mouse Borg5, …); assay: pull-down; three-way assay: His–MyoIIA-Rod pre-incubated with His–Borg5, then bound to His–SEPT2/6/7/9–Strep immobilised on Strep-Tactin Sepharose; septin buffer (300 mM KCl), 4°C; biotin elution; His blot; four experiments; conditions: both partners purified

Binder | His–Borg5 binding to Myo–GST with SEPT complexes, relative to that without septins (experiment 1) [1] | His–Borg5 binding to Myo–GST with SEPT complexes, relative to that without septins (experiment 2) [1] | Borg5–SEPT binding with His-MyoIIRod, relative to that without MyoIIRod [2]
septin 9–septin 6–septin 7–septin 2 complex (His–SEPT2/6/7/9–Strep) (complex, Prepared according to Castro-Linares et al. (2022); Tag ends are read from the plasmid names; As I recall, these Addgene plasmids hold mouse SEPT2 and human SEPT6, SEPT7 and SEPT9_i1; also called septin 9-6-7-2; SEPT complexes; source: E. coli BL21(DE3), co-expressed, purified (nickel agarose, then Strep-Tactin Sepharose); not shown: 6xHis, N-terminal, kept; Strep tag, C-terminal, kept; copies: + …) chain 1: MSKQQPTQFINPETPGYVGFANLPNQVHRKSVKKGFEFTLMVVGESGLGKSTLINSLFLTDLYPERIIPGAAEKIERTVQIEASTVEIEERGVKLRLTVVDTPGYGDAINCRDCFKTIISYIDEQFERYLHDESGLNRRHIIDNRVHCCFYFISPFGHGLKPLDVAFMKAIHNKVNIVPVIAKADTLTLKERERLKKRILDEIEEHSIKIYHLPDAESDEDEDFKEQTRLLKASIPFSVVGSNQLIEAKGKKVRGRLYPWGVVEVENPEHNDFLKLRTMLITHMQDLQEVTQDLHYENFRSERLKRGGRKVENEDMNKDQILLEKEAELRRMQEMIARMQAQMQMQMQGGDSDSGALGQHV chain 2: MAATDIARQVGEGCRTVPLAGHVGFDSLPDQLVNKSVSQGFCFNILCVGETGLGKSTLMDTLFNTKFEGEPATHTQPGVQLQSNTYDLQESNVRLKLTIVSTVGFGDQINKEDSYKPIVEFIDAQFEAYLQEELKIRRVLHTYHDSRIHVCLYFIAPTGHSLKSLDLVTMKKLDSKVNIIPIIAKADAISKSELTKFKIKITSELVSNGVQIYQFPTDDESVAEINGTMNAHLPFAVIGSTEELKIGNKMMRARQYPWGTVQVENEAHCDFVKLREMLIRVNMEDLREQTHTRHYELYRRCKLEEMGFKDTDPDSKPFSLQETYEAKRNEFLGELQKKEEEMRQMFVQRVKEKEAELKEAEKELHEKFDRLKKLHQDEKKKLEDKKKSLDDEVNAFKQRKTAAELLQSQGSQAGGSQTLKRDKEKKNNPWLCTE chain 3: MSVSARSAAAEERSVNSSTMVAQQKNLEGYVGFANLPNQVYRKSVKRGFEFTLMVVGESGLGKSTLINSLFLTDLYSPEYPGPSHRIKKTVQVEQSKVLIKEGGVQLLLTIVDTPGFGDAVDNSNCWQPVIDYIDSKFEDYLNAESRVNRRQMPDNRVQCCLYFIAPSGHGLKPLDIEFMKRLHEKVNIIPLIAKADTLTPEECQQFKKQIMKEIQEHKIKIYEFPETDDEEENKLVKKIKDRLPLAVVGSNTIIEVNGKRVRGRQYPWGVAEVENGEHCDFTILRNMLIRTHMQDLKDVTNNVHYENYRSRKLAAVTYNGVDNNKNKGQLTKSPLAQMEEERREHVAKMKKMEMEMEQVFEMKVKEKVQKLKDSEAELQRRHEQMKKNLEAQHKELEEKRRQFEDEKANWEAQQRILEQQNSSRTLEKNKKKGKIF chain 4: MKKSYSGGTRTSSGRLRRLGDSSGPALKRSFEVEEVETPNSTPPRRVQTPLLRATVASSTQKFQDLGVKNSEPSARHVDSLSQRSPKASLRRVELSGPKAAEPVSRRTELSIDISSKQVENAGAIGPSRFGLKRAEVLGHKTPEPAPRRTEITIVKPQESAHRRMEPPASKVPEVPTAPATDAAPKRVEIQMPKPAEAPTAPSPAQTLENSEPAPVSQLQSRLEPKPQPPVAEATPRSQEATEAAPSCVGDMADTPRDAGLKQAPASRNEKAPVDFGYVGIDSILEQMRRKAMKQGFEFNIMVVGQSGLGKSTLINTLFKSKISRKSVQPTSEERIPKTIEIKSITHDIEEKGVRMKLTVIDTPGFGDHINNENCWQPIMKFINDQYEKYLQEEVNINRKKRIPDTRVHCCLYFIPATGHSLRPLDIEFMKRLSKVVNIVPVIAKADTLTLEERVHFKQRITADLLSNGIDVYPQKEFDEDSEDRLVNEKFREMIPFAVVGSDHEYQVNGKRILGRKTKWGTIEVENTTHCEFAYLRDLLIRTHMQNIKDITSSIHFEAYRVKRLNEGSSAMANGMEEKEPEAPEM | 0.6 fraction of that observed without septins present | 0.3 fraction of that observed without septins present | –
His-tagged rod domain of myosin IIA (His–MyoIIA-Rod) (domain or fragment, UniProt P35579 1339-1960, looked up, Myosin IIA heavy chain (MYH9), rod domain, amino acids 1339–1960, in pet28a; Construct provided by Anne Bresnick; also called His-MyoIIRod; His-MyoRod; source: E. coli BL21(DE3), purified (Mg-ATP step, nickel agarose)) NSFREQLEEEEEAKHNLEKQIATLHAQVADMKKKMEDSVGCLETAEEVKRKLQKDLEGLSQRHEEKVAAYDKLEKTKTRLQQELDDLLVDLDHQRQSACNLEKKQKKFDQLLAEEKTISAKYAEERDRAEAEAREKETKALSLARALEEAMEQKAELERLNKQFRTEMEDLMSSKDDVGKSVHELEKSKRALEQQVEEMKTQLEELEDELQATEDAKLRLEVNLQAMKAQFERDLQGRDEQSEEKKKQLVRQVREMEAELEDERKQRSMAVAARKKLEMDLKDLEAHIDSANKNRDEAIKQLRKLQAQMKDCMRELDDTRASREEILAQAKENEKKLKSMEAEMIQLQEELAAAERAKRQAQQERDELADEIANSSGKGALALEEKRRLEARIAQLEEELEEEQGNTELINDRLKKANLQIDQINTDLNLERSHAQKNENARQQLERQNKELKVKLQEMEGTVKSKYKASITALEAKIAQLEEQLDNETKERQAACKQVRRTEKKLKDVLLQVDDERRNAEQYKDQADKASTRLKQLKRQLEEAEEEAQRANASRRKLQRELEDATETADAMNREVSSLKNKLRRGDLPFVVPRRMARKGAGDGSDEEVDGKADGAEAKPAE | – | – | 0.57 fraction of that without MyoIIRod
